According to patent US20210363257A1 (Pieris, published 2021):

Key:
[1] = biological target: T1, huPD-L1-His (human PD-L1 with a C-terminal polyhistidine tag) (human, UniProt Q9NZQ7 19-239); assay: SPR (Biacore), binder captured by anti-human IgG Fc, huPD-L1-His in solution, 25 C, 1:1 model
T1 construct: Bought; also called biotinylated huPD-L1-His
Experimental: (§1) The binding kinetics and affinity of exemplary fusion proteins to huPD-L1-His or huCD137-His (human PD-L1 or human CD137 with a C-terminal polyhistidine tag, R&D Systems) were determined by surface plasmon resonance (SPR) using a Biacore 8K or a Biacore T200 (GE Healthcare).
(§2) The anti-human IgG Fc antibody (GE Healthcare) was immobilized on a CM5 sensor chip using standard amine chemistry: the carboxyl groups on the chip were activated using 1-ethyl-3-(3-dimethylaminopropyl)-carbodiimide (EDC) and N-hydroxysuccinimide (NHS). Subsequently, anti-human IgG Fc antibody solution (GE Healthcare) at a concentration of 25 μg/mL in 10 mM sodium acetate (pH 5.0) was applied at a flow rate of 5 μL/min until an immobilization level of 6000-10000 resonance units (RU) was achieved. Residual non-reacted NHS-esters were blocked by passing a solution of 1M ethanolamine across the surface. The reference channel was treated in an analogous manner. […] After each capture step, the needle was washed.
(§3) Double referencing was used and the 1:1 binding model was used to fit the raw data.

[2] = biological target: T2, huCD137-His (human CD137 with a C-terminal polyhistidine tag) (human, UniProt Q07011 24-186); assay: SPR (Biacore), binder captured by anti-human IgG Fc, huCD137-His in solution, 25 C, 1:1 model
T2 construct: Bought; also called huCD137-His-Bio
Experimental: as §1, §2, §3

[3] = biological target: T2, huCD137-His (human CD137 with a …); assay: dual-binding ELISA, huCD137-His coated, binder titrated, detection with biotinylated huPD-L1-His
[4] = biological target: T3, cynomolgus PD-L1 expressed on cells (cynomolgus); assay: flow cytometry, Flp-In-CHO::cynoPDL-1 cells
T3 construct: whole, on cells; also called Flp-In-CHO::cynoPDL-1
Experimental: (§4) The geometric means of the fluorescence intensity were used to calculate EC₅₀ values using nonlinear regression (shared bottom, SLOPE=1).
(§5) 5×10⁴ cells per well were incubated for 1 h in ice-cold PBS containing 5% fetal calf serum (PBS-FCS). A dilution series of the fusion proteins and control antibodies were added to the cells and incubated for 1 h on ice. Cells were washed twice with PBS and then incubated with a goat anti-hIgG Alexa647-labeled antibody for 30 min on ice. Cells were subsequently washed and analyzed using iQue Flow cytometer (Intellicyte Screener). Mean geometric fluorescent signals were plotted and fitted with Graphpad software using nonlinear regression (shared bottom, SLOPE=1).

[5] = biological target: T1, huPD-L1-His (human PD-L1 with a …); assay: ELISA, huPD-L1-His coated, detection anti-human IgG Fc-HRP
Experimental: (§6) Recombinant huPD-L1-His or cyPD-L1-His (human or cynomolgus PD-L1 with a C-terminal polyhistidine tag, R&D Systems or Sino Biologics) at the concentration of 1 μg/mL in PBS was coated overnight on microtiter plates at 4° C. After washing with PBS-0.05% T (PBS supplemented with 0.05% (v/v) Tween 20), the plates were blocked with 2% BSA (w/v) in PBS-0.1% T (PBS supplemented with 0.1% (v/v) Tween 20) for 1 h at room temperature. […] Bound molecules under study were detected by incubation with 1:5000 diluted anti-human IgG Fc-HRP (Jackson Laboratory) in PBS-0.1% T-2% BSA. After an additional wash step, fluorogenic HRP substrate (QuantaBlu, Thermo) was added to each well and the fluorescence intensity was detected using a fluorescence microplate reader.

[6] = biological target: T4, huPD-L1-Fc (recombinant human PD-L1 Fc fusion) (human, UniProt Q9NZQ7 19-239); assay: competitive ELISA, huPD-1-His coated, 15 nM huPD-L1-Fc tracer, binder titrated
T4 construct: Bought; also called tracer huPD-L1-Fc
Experimental: (§7) Recombinant huPD-1-His (Acrobiosystems) in PBS (1 μg/mL) was coated overnight on microtiter plates at 4° C. The plates were washed five times after each incubation step with 100 μL PBS-0.05% T (PBS supplemented with 0.05% (v/v) Tween 20). The plates were blocked with 2% BSA (w/v) in PBS-0.1% T (PBS supplemented with 0.1% (v/v) Tween 20) for 1 h at room temperature and subsequently washed again. […] The mixtures of fusion proteins and the tracer were added to the plates and incubated for 20 min at room temperature following by five washing steps with 100 μL PBS-0.05% T. Subsequently, a 1:5000 dilution of goat-anti human IgG-Fc HRP (Jackson) was added to the wells and incubated for 1 h. After an additional wash step, fluorogenic HRP substrate (QuantaBlu, Thermo) was added to each well, and the fluorescence intensity was detected using a fluorescence microplate reader.

[7] = biological target: T2, huCD137-His (human CD137 with a …); assay: ELISA, huCD137-His coated, detection anti-NGAL-HRP
Experimental: as §6
(§8) The same ELISA setup was also employed to determine the binding potency of fusion proteins to CD137, where huCD137-His (human CD137 with C-terminal polyhistidine tag, R&D Systems) or cyCD137-Fc (cynomolgus CD137 C-terminally fused to Fc) was instead coated on a microtiter plate. The testing agents were similarly titrated and bound agents were detected via anti-NGAL-HRP.

[8] = biological target: T5, human CD137 expressed on cells (human, UniProt Q07011 24-255); assay: flow cytometry, Flp-In-CHO::huCD137 cells
T5 construct: whole, on cells; also called Flp-In-CHO::huCD137; NFκB-luc2/CD137 Jurkat cells
Experimental: as §4, §5

[9] = biological target: T6, cyPD-L1-His (cynomolgus PD-L1 with a C-terminal polyhistidine tag) (cynomolgus); assay: ELISA, cyPD-L1-His coated, detection anti-human IgG Fc-HRP
T6 construct: Bought
Experimental: as §6

[10] = biological target: T1, huPD-L1-His (human PD-L1 with a …); assay: dual-binding ELISA, huPD-L1-His coated, binder titrated, detection with biotinylated huCD137-His
Experimental: Recombinant huPD-L1-His (R&D Systems) in PBS (1 μg/mL) was coated overnight on microtiter plates at 4° C. The plates were washed five times after each incubation step with 100 μL PBS-0.05% T. The plates were blocked with 2% BSA (w/v) in PBS-0.1% T for 1 h at room temperature and subsequently washed again. Different concentrations of tested fusion proteins were added to the wells and incubated for 1 h at room temperature, followed by a wash step. […] After washing, a 1:5000 dilution of ExtrAvidin-HRP (Sigma-Aldrich) in PBS-0.1% T-2% BSA was added to the wells and incubated for 1 h. After an additional wash step, fluorogenic HRP substrate (QuantaBlu, Thermo) was added to each well, and the fluorescence intensity was detected using a fluorescence microplate reader.

[11] = biological target: cyCD137-Fc (cynomolgus CD137 C-terminally fused to Fc) (cynomolgus); assay: ELISA, cyCD137-Fc coated, detection anti-NGAL-HRP
Experimental: as §6, §8

[12] = biological target: T7, cynomolgus CD137 expressed on cells (cynomolgus, UniProt A9YYE7 24-254); assay: flow cytometry, Flp-In-CHO::cynoCD137 cells
T7 construct: also called Flp-In-CHO::cynoCD137
Experimental: as §4, §5

[13] = biological target: T8, human PD-L1 expressed on cells (human, UniProt Q9NZQ7 19-290); assay: flow cytometry, RKO tumor cells (PD-L1-positive)
T8 construct: whole, on cells; also called Flp-In-CHO::huPDL-1; RKO cells
Experimental: as §5
For flow cytometric analysis, RKO cells were incubated with fusion proteins and detected using a fluorescently labeled anti-human IgG antibody as described in Example 6.

[14] = biological target: T8, human PD-L1 expressed on cells; assay: flow cytometry, Flp-In-CHO::huPDL-1 cells
Experimental: as §4, §5

[15] = biological target: T1, huPD-L1-His (human PD-L1 with a …); assay: ELISA, huPD-L1-His coated, detection anti-human IgG Fc-HRP per paragraph 264; the filing does not say that this reagent detects the lipocalin mutein alone
[16] = biological target: T9, biotinylated huCD137-Fc (human CD137 Fc fusion) (human, UniProt Q07011 24-186, biotinylated); assay: competitive ELISA, antibody SEQ ID NOs: 28 and 29 coated (competitor), 1 nM huCD137-Fc-bio tracer, binder titrated
T9 construct: Bought; also called huCD137-Fc-bio
Experimental: as §7, with “The” for “Recombinant huPD-1-His (Acrobiosystems) in PBS (1 μg/mL) was coated overnight on microtiter plates at 4° C. The”, “testing molecules” for “fusion proteins”, “ExtrAvidin-HRP (Sigma-Aldrich) in PBS-0.1% T-2% BSA” for “goat-anti human IgG-Fc HRP (Jackson)”
Competition data for an exemplary experiment are shown in FIG. 14, where the x-axis represents testing molecule concentration and the y-axis represents the measured trace molecule concentration. The data were fit to a 1:1 sigmoidal curve, where the IC₅₀ value and the maximum signal were free parameters, and the slope was fixed to unity.

| Binder | Kd [1] [nM] | koff [1] [s⁻¹] | kon [1] [M⁻¹ s⁻¹] | Kd [2] [nM] | koff [2] [s⁻¹] | kon [2] [M⁻¹ s⁻¹] | EC50 [3] [nM] | EC50 [4] [nM] | EC50 [5] [nM] | IC50 [6] [nM] | EC50 [7] [nM] | EC50 [8] [nM] | EC50 [9] [nM] | EC50 [10] [nM] | EC50 [11] [nM] | EC50 [12] [nM] | EC50 [13] [nM] | EC50 [14] [nM] | binding result [15] | IC50 [16] [nM] |
| --- | --- | --- | --- | --- | --- | --- | --- | --- | --- | --- | --- | --- | --- | --- | --- | --- | --- | --- | --- | --- |
| fusion protein SEQ ID NOs: 90 and 91 (bispecific antibody, human IgG4 S228P, kappa, F234A L235A, Antibody-lipocalin mutein fusion, IgG4 S228P backbone) heavy: not shown light: EIVLTQSPDTLSVTPKEKVTLTCRASQSIGTNIHWFQQKPGQSPKLLIKYASESISGVPSRFSGSGSGTDFTLTINSVEAEDAATYYCQQSNSWPYTFGQGTKLEIKRTVAAPSVFIFPPSDEQLKSGTASVVCLLNNFYPREAKVQWKVDNALQSGNSQESVTEQDSKDSTYSLSSTLTLSKADYEKHKVYACEVTHQGLSSPVTKSFNRGECGGGGSGGGGSGGGGSQDSTSDLIPAPPLSKVPLQQNFQDNQFHGKWYVVGQAGNIRLREDKDPIKMMATIYELKEDKSYDVTMVKFDDKKCMYDIWTFVPGSQPGEFTLGKIKSFPGHTSSLVRVVSTNYNQHAMVFFKFVFQNREEFYITLYGRTKELTSELKENFIRFSKSLGLPENHIVFPVPIDQCIDG | 0.537 | 0.000861 | 1.6e+06 | 5.73 | 0.000224 | 39100 | 2.3 | 3.37 | 0.2 | 2.8 | 0.14 | 4.69 | 0.17 | 0.49 | 0.21 | 3.66 | 0.53 | 4.09 |  |  |
| CD137-specific lipocalin mutein SEQ ID NO: 42 (designed binder, Mutein of mature human NGAL) QDSTSDLIPAPPLSKVPLQQNFQDNQFHGKWYVVGQAGNIRLREDKDPIKMMATIYELKEDKSYDVTMVKFDDKKCMYDIWTFVPGSQPGEFTLGKIKSFPGHTSSLVRVVSTNYNQHAMVFFKFVFQNREEFYITLYGRTKELTSELKENFIRFSKSLGLPENHIVFPVPIDQCIDG |  |  |  |  |  |  |  |  |  |  | 0.27 |  |  |  |  |  |  |  | no binding (tested: 100 nM) | 2.6 |
